Here are results for three substances from US20050256058.

The subject of data set [1] is T1, Cbz-Ala-Ala-AAsn-CH═CH-CONHCH2CH2Ph.
T1 sequence: AAN

Data set [2] concerns T2, PhPr-Leu-ALys-CH═CH-COOEt.
T2 sequence: LK

Data set [3] has as its system T3, PhPr-Leu-AOrn-CH═CH-COOEt.
T3 sequence: LX

In data set [4] the test system is T4, Cbz-Ala-Ala-AAsn-CH═CH-CON(CH3)Bzl.
T4 sequence: AAN

In data set [5] the test system is T5, Cbz-Ala-Ala-AAsn-CH═CH-CON(Bzl)2.
T5 sequence: AAN

Data set [6] relates to T6, Cbz-Ala-Ala-AAsn-CH═CH-CO-indoline.
T6 sequence: AAN

For data set [7], the system named is T7, Cbz-Ala-Ala-AAsn-CH═CH-COOEt.
T7 sequence: AAN

For Cathepsin B, the “kobs/[I]” value in data set [1] is “NI”; in data set [2], 9 M⁻¹ s⁻¹; in data set [3], 3 M⁻¹ s⁻¹; in data set [4] it was “NI”; in data set [5], “NI”; in data set [6] it was “NI”. The kobs/[I] in data set [7] was 1 M⁻¹ s⁻¹.
Take Gingipain K: the “kobs/[I]” value is “NI” in data set [1]; 1 M⁻¹ s⁻¹ in data set [4]; 2 M⁻¹ s⁻¹ in data set [5]; 1 M⁻¹ s⁻¹ in data set [6]; 6 M⁻¹ s⁻¹ in data set [7].
In the case of Trypsin, the kobs/[I] in data set [2] is 17 M⁻¹ s⁻¹; in data set [3], “NI”.
